Results on 16 sequences are retold here after a protein production outcome set (Wang et al. 2014).

A short description of the series: label from the status in PepcDB records.
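Note: failed if final PepcDB status was selected cloned or expressed and not failed if soluble or beyond.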

As to “MDKENEYNKMCEEHDKYFKNLFKNLNRKIEYTFACEKENTYDDSVSNSIYTNSNQNEDNISYNNNNINNDNISSSSISKNSNNTKNSSFNETKNINDDKIKYDDKNVYDDKNINDDKNIYDDKYLYDDKNINHDKYSYDDKNINDDKYLYDDKNLYDGNNIYEENNYNNNNTNGHQMKSPTYHMKNSVQNITIYTSINKNDISKDINKINEKNTANINTSHIYQIKNDENNNNIYNNVEHIKSLCESYKNYDNDHLLYYKKHSHSKEDIHNYPIFNNAKTSQLENSNNDFLNIMNNNIKNNISEMESSKKKKKSNLLITNEIEDKLSNIQINHTNKINENNTIQYGQKTKGNKIGNHKTNIKEKLNDLIENIHLKNNKIENMNNMDDMNDMDNMNNMDDMDNTDNMNNRGNMNNRDNINNRDNMNNSNNMDNKDNMNNKDNINNKDNMNNKDNINNKDNINNLNCIDNMKHDKLQKDHLETPPIHKSPITRKSKNNIMDILNNKMNITSLENVDTSTPKYVKYNTIHREIMNPRQHFFNQNKSSIDHIICL”, the protein production result is on record as “failed”. Then “MDKESVDTLFGMGLTAYQAKDYTKAIHALEHLREHDPSYTTLYSYLAKSYEENGEPEKAIAVLRDGLTQDEFNKEMFLEAGKLAVTLRLPEEAEEFYRQAIVLDEEFSEAIMQLNKLLLAKENYEGVIELVEGLGEEVISEPQIFWDVSVAYQETEQYNKAKANYELAYPHFTNNPTFLKEYGLFLREEGEHAKSQEVLRSYLELEPLEHHHHHH”, with “not failed”; and “MDKFYHFLTLTGIGLYWFLVAGVTLRVVLKRRAVSVSLAWLMIIYILPVLGVACYFLFGELNLGRKRAERAKEMFTPFAKWFSQLNDCHAHMPETMGRHIYRIDELCNNRLGLPALSGNTLSLQQSPDEILHSIIEDIENAKTSIRMVFYIWHPGGLADSVASALIQASKRGVDVKLLLDSAGSPRFFRSPWYKMMKDSGIEVIQALEVKMWRMFLRRLDLRQHRKIIVIDDEIAYTGSMNLVDPAYFKQSSGVGRWIDIMVRVTGPTVNVLSAIHCWDWEVETGERYLPKLPECKIDNSKYQHPIQVVPSGPGMPEYLIYQVLTLAINQANRSVRITTPYFVPNTDLLETLKMTAQRGIDVELIIPHKNDSLMVQWASRAFYSELLAAGVKIYEFYGGLLHTKSVVIDDQFCLVGTVNMDMRSLWLNFEVTLAVDDEEFTKQLSWLQDGYIKQSHPVVLDEWEKRSLYSRFLERVFYLFNPLL”, with “failed”. Regarding “MDKHIIGENAGKLWRLLSTDVHRKWTLQEVKDATGFNDLEAASAIGWLAREDKIQFELEHHSTKDKNVFLYLMLNVYFLEHHHHHH”, the protein production entry was “not failed”.

“MDKHKKNNQKEKRVKRNLKTLLLGSPREITIPGSRFPNGTQNLVPVVDIQKGVLITEDGRYIKVLEIVPTNFYLKSRIEQQNIIYYFSCYLKIAPQSLQILVCTQRADIDAYCDQMEKYYNREKNENCKAMILEDAQLVNYLASYEAVTRRFYLIYEYKGEATEFTEISKELADQAETAYQYLDYCGLEVLRHDNYDEFLLRTVYTAYHKQSARNINFSALMEQVGPVFNTPEITEDQLEEEDSEGITTIQDVLAPTEADLEHSKYILIDGVYHAYLYITGYSYPTERGLAWLSPLIELGDGISLSFFLEKKRKEQILSKVVKTTMINRSRLRDIEDIRADYEELDDAIYSGMYIKDRLNRDGEDFFYMHTLIEVTALDETTLNKRIKQVQNLCVSMDMTARRADWCHEQCFRSMLPIAKLDMDIAKRTQRNVLTSGAAGAFPFSSFELCDNKGVLMGINLHNNSAVIVDNFNSDIYSNGNLAIFGMSGAGKTYTLLLLAMRLRMCGVQVFIIAPEKGFEYRCACEAIGGQFLRLSPGSEDCINLMEIRRSTLDIDSNLANNIQRNDSVLLSKVQDLHTYIRLRYPQITPEEAYQLNIAILECYESFGITKDNRSLLNPDGSFKAMPDFTHLYSCLLKYPSLKNVALAVKEIIDFGMGGQTNVDLFSSFIVLDTSGAKKKDISSSTFVATSFIRDELSRSRTRKKAVLGDELWVIAGEEGNEQAADFIIEMVKLIRGYGAIFVSATQNTLDYFALRDGKFGDALLNNSRLKLLLQMEEAEAIKLQEKLGLSDEEVMQVVRCGRGQGLLCAGKNRIGIEIRSSQTEYELITTNRTDLEKREARTDTAEL”: the protein production result was “failed”. For “MDKILEILKDFGIVELRPPQKKALERGLLDKNKNFLISIPTASGKTLIGEMALINHLLDGNKNPTNKKGIFIVPLKALASEKYEEFKSKYERYGLRIALSIGDYDEDEDLSKYHLIITTAEKLDSLWRHKIDWINDVSVVVVDEIHLINDETRGGTLEILLTKLKEFNVQIIGLSATIGNPDELAEWLNAELIVDDWRPVELKKGIYKNEAIEFINGEIREIKAVDNNDIYNLVVDCVKEGGCCLVFCNTKRNAVNEAKKLNLKKFLTEEEKIRLKEIAEEILSILEPPTEMCKTLAECILNGSAFHHAGLTYQHRKIVEDAFRKRLIKVICCTPTLCLNANTEILQESGFRKITELNKDEKVFALCGKEIKPVDGWKVHKTPQHEYNIVVKTVNGLEITTTPNHIFLVKENGSLKEKEAKDLKVGDYVATVDRIRVKEKDIDLSNGDLYFIGYFIGDGYTGVIEKNTLKATPDLAFNPKYPPNFDDSELHKKYFLKCRISKGVAHYIYSKKLRKIFNKLNMLTKDNKNIDAFCNLPLDKLAYLIAGLFDSDGYIYLNRKNIEFYSISEKLVEQLQFVLLRFGIHSSIRKKKTKTMVSPTNGKEYKCKDIYVLTIRDFMSIKRFYENIPLRHEEKRRKLEEIIKNKEIGQIPSEFVALRFTPIAKIWCDCGFSVDLTMFKPRTKRQRELNKKRVKLLFELLDGKKLITNYKEYYSKRKNPYFDFIVREKINGNNYYSLNEKGRVLMSLLNKHIKDKENLEEMYNFLVNLEKCPICGKPIHKEMRYSWKKECYDGDIYWDRIKEIKKIKVNDKYAYDIELPDDGSNSHYIVANGFIVHNSAGLNLPCRRAIVKDLTRFTNKGMRYIPIMEIQQCIGRAGRPGLDPYGEGIIVAKNDRDYLRAYQALTQKPEPIYSKLSNQAVLRTQLLGLIATGEIRDEYDLEWFIRNTFYAHQYGNLREVAKNINEVIRFLEENEFIIDFMPTELGKRVSELYIDPLSAKFIIDGLEEMENEEEIYYLYLISKTLEMMPNLRVYNSEELNLIDEMDSLGIKSFEIEDLEAFKTAKMLYDWINEVPEDEILKRYKIEPGILRYKVENAVWIMHALKEIAKLIGKSSDIPEKLEIRLEYGAKEDIIELLSIKYIGRVRARKLYNAGIRSIEDIINNPSKVASIIGEKIAKKILDELGVKFGQQKLSF”, the protein production result was “failed”. Then “MDKLEAMQVYVCVVDTHSFIRAAEVLGVPRSTVSRVVKELESWLKIQLLQRTTRKLSVTAEGRRYYEECKRVLADIAAMESSFPGRAAQPKGRFKVGMPQSLARHCIIPTLPAFLRQYPELELILCSSDSVEDIILQGYDCVIRAGRIDDSTTLVARPLASFNWVIAASPTYIERYGSPENLDDLQKHYAVGYLNHRTGRTTDWFFTREGEDYAMRVQETLVVDDTDAYIQAGIQGLGLIRVASYLVAPYLHSGALVTCMDNHSYDLPLALVYPQNRFLPPAVRAFYHWCKTALSQPEPFC”, with “failed”; and “MDKLNKITVPASQKLRQLQKMVHDIKNNEGGIMDKIKKLKVKGPPSVPRRDYALDSPADEEEQWSDDFDSDYENPDEHSDSEMYVMPAEETGDDSYEPPPAEQQTRVVHPALPFTRGEYVDNRSSQRHSPPFSKTLPSKPSWPSAKARLASTLPAPNSLQKPQVPPKPKDLLEDEADYVVPVEDNDENYIHPRESSPPPAEKAPMVNRSTKPNSSSKHMSPPGTVAGRNSGVWDSKSSLPAAPSPLPRAGKKPATPLKTTPVPPLPNASNVCEEKPVPAERHRGSSHRQDTVQSPVFPPTQKPVHQKPVPLPRFPEAGSPAADGPFHSFPFNSTFADQEAELLGKPWYAGACDRKSAEEALHRSNKDGSFLIRKSSGHDSKQPYTLVAFFNKRVYNIPVRFIEATKQYALGKKKNGEEYFGSVVEIVNSHQHNPLVLIDSQNNTKDSTRLKYAVKVS”, with “not failed”. Consider “MDKLVKYQELVKKLLTNYASDDVSDQDVEVQLILDTERNHYQWMNVGWQGLNRIYRCVIHFDIKDGKIWLQQNLTDRNPAEELVMMGVPREDIVLGLQAPYKRQYTDYGVA”, for which the protein production result is “not failed”. On to “MDKNIIIGAMTALITPFKNGKVDEQSYARLIKRQIENGIDAVVPVGTTGESATLTHEEHRTCIEIAVETCKGTKVKVLAGAGSNATHEAVGLAKFAKEHGADGILSVAPYYNKPTQQGLYEHYKAIAQSVDIPVLLYNVPGRTGCEISTDTIIKLFRDCENIYGVKEASGNIDKCVDLLAHEPRMMLISGEDAINYPILSNGGKGVISVTSNLLPDMISALTHFALDENYKEAKKINDELYNINKILFCESNPIPIKTAMYLAGLIESLEFRLPLCSPSKENFAKIEEVMKKYKIKGF”, for which the protein production result was “not failed”. Consider “MDKNNNNLRLILAIALSFLFIALYSYFFQKPNKTTTQTTKQETTNNHTATSPNAPNAQHFSTTQTTPQENLLSTISFEHARIEIDSLGRIKQVYLKDKKYLTPKQKGFLEHVGHLFSSKENAQPPLKELPLLAADKLKPLEVRFLDPTLNNKAFNTPYSASKTTLGPNEQLVLTQDLGTLSIIKTLTFYDDLHYDLKIAFKSPNNLIPSYVITNGYRPVADLDSYTFSGVLLENSDKKIEKIEDKDAKEIKRFSNTLFLSSVDRYFTTLLFTKDPQGFEALIDSEIGTKNPLGFISLKNEANLHGYIGPKDYRSLKAISPMLTDVIEYGLITFFAKGVFVLLDYLYQFVGNWGWAIILLTIIVRIILYPLSYKGMVSMQKLKELAPKMKELQEKYKGEPQKLQAHMMQLYKKHGANPLGGCLPLILQIPVFFAIYRVLYNAVELKSSEWILWIHDLSIMDPYFILPLLMGASMYWHQSVTPNTMTDPMQAKIFKLLPLLFTIFLITFPAGLVLYWTTNNILSVLQQLIINKVLENKKRMHAQNKKEH”, for which the protein production entry was “failed”. Regarding “MDKPILKDSMKLFEALGTIKSRSMFGGFGLFADETMFALVVNNQLHIRADQQTSSDFETQGLKPYVYKKRGFPVVTKYYAISSELWESSDRLIEVAKKSLENAKL”, the protein production result is “not failed”. Turning to “MDKPVLKDSMRLFEQLGRVKSRSMFGGFGIFVDETMFALVVNDTLHIRADDATIEKYKQQGYEPYVYKKRGFPVVTKYYALPEDCWSHPDSILNEVRAALEVAKA”, the protein production entry is “failed”.

Regarding “MDKQAILDNIHQTWQEEANAISRLPEVTSEEALVKTVEKIAECTGKIVVAGCGTSGVAAKKLVHSFNCIERPAVFLTPSDAVHGTLGVLQKEDILILISKGGNTGELLNLIPACKTKGSTLIGVTENPDSVIAKEADIFFPVSVSKEPDPFNMLATASTMAVIASFDAVIVCLMTYMNYTKEQFSVIHPGGAVGNKLLNK”, the protein production result is “not failed”. As to “MDKRFVQAHKEARWALWLTLLYLAAWLAAAYLPGVAIGFTGLPHWFEMACLLVPLLFILLCWAMVKLIFRDISLEDDDAV”, the protein production entry is given as “failed”. Consider “MDKRRVVVTGVGAVTPIGNDAETSWENAKKGVNGVAKMTRLNPDDFPVKIAAELKDFDVEKYLEKKEARKMDRFTHYAIASAEMAVQDSGLVIDDSNANRVGVWIGSGIGGMETFETQYEIFLNRGHRRVSPFFVPMMIPDMGSGQVSIRFGAKGINSTTVTACATATNSIGDAFKVIERGDADAMITGGAEAPITKMSLAGFTANKALSLNPDPETACRPFDKDRDGFIIGEGAGIVILEEYEHAKARGAKIYAEIVGYGATGDAYHITAPAPNGEGAARAMKMAIDDAGLTPDKVDYINAHGTSTPYNDEYETQAIKTVFGEHAKKLAISSTKSMTGHTLGASGGIEAIFALLTIRDNIIAPTIHLKNQDEVCDLDYVPNEAREANVNVVISNSFGFGGHNATLVFKRIED”, for which the protein production entry is reported as “not failed”.
